# Experimental data taken from article PMC8671467, “A novel Bacillus ligniniphilus catechol 2,3-dioxygenase shows unique substrate preference and metal requirement” (Scientific Reports, 2021).
# What was measured:
# Cc1cccc(O)c1O = test: purified protein; conditions: 0.1 M Tris-HCl pH 7.4, 0.1 mM MnCl2, 32.5 °C, 40 µg/mL enzyme, 0.2-1.2 mM substrate
# CCc1cccc(O)c1O = test: purified protein; conditions: 0.1 M Tris-HCl pH 7.4, 0.1 mM MnCl2, 32.5 °C, 20 µg/mL enzyme, 0.05-1.0 mM substrate
substance,measurement,setting,value
BLC23O (Halalkalibacterium ligniniphilum),Km,Cc1cccc(O)c1O,418 ± 25 µM
same,kcat,Cc1cccc(O)c1O,0.2 ± 0.03 s⁻¹
same,kcat/Km,Cc1cccc(O)c1O,480 M⁻¹ s⁻¹
same,Km,CCc1cccc(O)c1O,193 ± 17 µM
same,kcat,CCc1cccc(O)c1O,0.47 ± 0.09 s⁻¹
same,kcat/Km,CCc1cccc(O)c1O,2400 M⁻¹ s⁻¹
